Patent EP1188448A2

Target: FGF receptors
Assay: cell-based or functional assay

Substance | ED50, cytotoxicity on SK-MEL-28 cells | ID50, cytotoxicity on SK-Mel-28 cells (72 h, MTT) | ID50, inhibition of proliferation of serum stimulated rabbit keratocytes (3 h) | ID50, inhibition of rabbit keratocyte proliferation (48 h)
wild type bFGF-SAP chemical conjugate (heterogeneous FGF-SAP) (from UniProt P20656 25-277) | 8 ng/mL | 300 pM | 1000 to 10000 pM | 100 pM
bFGF-SAP fusion protein (FGF-Ala-Met-SAP), wild type |  | 600 pM | 1000 to 10000 pM | 200 pM
